The target in the experiment is L1 (DV1-GV4) antigen: soluble heterodimeric γδ TCR in leucine zipper format (TRDV1/TRGV4) (human). Briefly: SPR (MASS-2), IgG captured via protein G (100 nM for TS8.2), L1 as analyte, steady-state 1:1 fit.
L1 (DV1-GV4) antigen: soluble heterodimeric γδ TCR in leucine zipper format (TRDV1/TRGV4) (human), sequence (main, as listed by the source): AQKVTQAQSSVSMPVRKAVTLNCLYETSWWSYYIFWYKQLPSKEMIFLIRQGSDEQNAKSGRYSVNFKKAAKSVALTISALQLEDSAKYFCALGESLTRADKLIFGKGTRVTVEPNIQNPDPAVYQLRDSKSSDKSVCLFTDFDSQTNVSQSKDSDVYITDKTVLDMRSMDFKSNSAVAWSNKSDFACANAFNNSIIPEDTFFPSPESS

The term Kd denotes the free concentration of one partner at which half of the binding sites on the other are occupied at equilibrium, for simple one-to-one binding. “TS8.2 (commercial anti-Vδ1 antibody; Human TCR Vδ1 purified mAb, ThermoFisher TCR1730)” returned a Kd of 44 nM.

For the origin of these results see patent US20220403025A1.
